# Measurements published in patent publication US20230416361A1.
# Experiments:
# [1] = target: human CD200R expressed on cells (human) (UniProt Q8TD46); test: cell-based or functional assay
# [2] = target: human CD200R expressed on cells (human) (UniProt Q8TD46)
# [3] = target: human CD200R expressed on cells (human) (UniProt Q8TD46); test: flow cytometry on Jurkat T cells expressing human CD200R, 24 h at 37 C, PE anti-hIgG secondary
# [4] = target: extracellular domain of human CD200R (Met29-Leu243) (human) (UniProt Q8TD46); test: SPR (Biacore), antibody captured by anti-human Fc, CD200R extracellular domain injected, single cycle kinetics, 25 C
# [5] = target: human CD200R expressed on cells (human) (UniProt Q8TD46); test: flow cytometry on Jurkat T cells lentivirally expressing human CD200R, 24 h at 37 C, PE anti-hIgG secondary antibody, geometric MFI, non-linear curve fit
Binder,"Average % inhibition of SEAP activity at Log [Antibody], M = -8.18 [1] [%]","Average % inhibition of SEAP activity at Log [Antibody], M = -8.8 [1] [%]","Average % inhibition of SEAP activity at Log [Antibody], M = -9.57 [1] [%]","Average % inhibition of SEAP activity at Log [Antibody], M = -10.27 [1] [%]","Average % inhibition of SEAP activity at Log [Antibody], M = -10.9 [1] [%]","Average % inhibition of SEAP activity at Log [Antibody], M = -11.6 [1] [%]","Average % inhibition of SEAP activity at Log [Antibody], M = -12.3 [1] [%]",IC50 of inhibition of NF-kB-inducible SEAP reporter activity in CD200R-expressing THP-1 dual cells [1] [pM],average maximal percentage inhibition (Emax) of SEAP activity [1] [%],"EC50 of DOK2 recruitment to CD200R, enzyme fragment complementation luminescence, PathHunter Jurkat CD200R cells co-cultured with FcgRIIb-expressing HEK293 cells [2] [pM]","EC50 of Dok2 recruitment to human CD200R (enzyme fragment complementation, PathHunter Jurkat CD200R cells co-cultured with FcγRIIb HEK293 cells) [1] [pM]",EC50 [3] [pM],Kd [4] [pM],koff [4] [s⁻¹],kon [4] [M⁻¹ s⁻¹],EC50 [5] [pM]
"anti-CD200R antibody clone 21.3.1 (mIgG1k isotype) (antibody, V domains shown) VH: QVQLQQPGSELVRPGASVKLSCKASGHTFTSYWMHWVKQRPGQGLEWIGNIYPGSGSINYDEKFKSKAKLTVDTSSRTAYMQLSSLTSEDSAVYYCLTMTGTSWGQGTLVTVSA VL: DVQMIQSPSSLSASLGDIVTMTCQASQGTPINLHWFQQKPGKAPKLLISGASNLEDGVPSRFSGSRYGTAFTLTISSLEDEDMATYFCLQFTYIPWTFGGGTKLEIKR",35.3,28.3,23.4,9.8,1.1,1,1.7,141,33.2,,,,,,,
"hu2131_Q1E_M99G hIgG1k P238D (antibody, V domains shown) VH: EVQLVQSGAEVKKPGASVKVSCKASGHTFTSYWMHWVRQAPGQGLEWMGNIYPGSGSINYDEKFQGRVTMTADTSTSTVYMELSSLRSEDTAVYYCLTGTGTSWGRGTLVTVSS VL: DIQMTQSPSSLSVSVGDRVTITCQASQGTPINLHWFQQKPGKAPKLLISGASNLESGVPSRFSGSGSGTEFTFTISSLQPEDAATYYCLQFTYIPWTFGQGTKLEIKR",,,,,,,,,,437,440,530,< 19.3,< 1e-05,517000,
"Antibody I-4P (antibody, human IgG4 S228P, kappa, V domains shown) VH: QVQLVQSGAEVKKPGASVKVSCKASGFSFSSGYYMAWVRQAPGQGLEWMGLIGVGSGSLWYAQKFQGRVTMTRDTSTSTVYMELSSLRSEDTAVYYCARHFALSDPFNLWGQGTLVTVSS VL: EIVLTQSPDFQSVTPKEKVTITCQASESIDSYLLWYQQKPDQSPKLLIKQASTLASGVPSRFSGSGSGTDFTLTINSLEAEDAATYYCQNYYDISSNDFGGGTKVEIKR",22.3,20.9,16.1,7.7,3.2,2.2,3.1,134,19.9,1140,1100,3400,,,,3430
